In US11814435B2, “Therapeutic antibodies and their uses” (PFIZER INC., priority 2015, dated 2023):
Changes are numbered by the printed parent chain. Each block holds one molecule with its values, some of them ahead of it.

What was measured:
[1] = system: Molp8 LucGFP orthotopic myeloma; assay: Anti-BCMA/CD3 bispecific in combination with standard of care in orthotopic Molp8 tumor model; assay type: in vivo, NSG mice; details: FIG. 14; bispecific 0.3 mg/kg; bortezomib 1 mg/kg i.p.; lenalidomide 50 mg/kg oral gavage
Procedure: In vivo efficacy study of BCMA bispecifics was performed with Molp8, expressing luciferase and GFP, orthotopic model. Two million Molp8 LucGFP cells were injected intravenously through the tail vein into 6-8 weeks old female NSG animals. Intraperitoneal injection of D-luciferin (Regis Technologies, Morton Grove, Ill.) (200 uL per animal at 15 mg/mL), followed by anesthesia with isofluorane and subsequent whole body bioluminescence imaging (BLI) enabled monitoring of tumor burden. Bioluminescent signals emitted by the interaction between luciferase expressed by the tumor cells and luciferin were captured by imaging using an IVIS Spectrum CT (Perkin Elmer, MA) and quantified as total flux (photons/sec) using Living Image 4.4 (Caliper Life Sciences, Alameda, Calif.). The animals were injected through bolus tail vein on day 7 with 20 million expanded T cells as described in Example 18. Two days post T cell injection, mice were imaged and randomized into five groups of seven mice with an average of 17E6 total flux/group: 1) Combo_Rd4_0.6 nM_C29, 0.3 mg/kg, 2) Combo_Rd4_0.6 nM_C29, 0.3 mg/kg and 1 mg/kg bortezomib, 3) Combo_Rd4_0.6 nM_C29, 0.3 mg/kg and 50 mg/kg lenalidomide, 4) 1 mg/kg bortezomib and 50 mg/kg lenalidomide and 5) vehicle. […]

[2] = system: OPM2 cells; assay: Anti-BCMA/CD3 bispecific with lenalidomide, carfilzomib or doxorubicin, T cell killing of OPM2 (flow cytometry live cells); assay type: cell-based; details: FIGS. 15A-15C; 1.56 nM carfilzomib, 195 nM lenalidomide, 6.25 nM doxorubicin; three days
Procedure: OPM2 and CD3+ T cells were first incubated with the standard of care for two hours at 37°. 1.56 nM carfilzomib and 6.25 nM doxorubicin were diluted in PBS containing 0.02% DMSO. Lenalidomide was diluted in PBS containing 0.1% DMSO at 195 nM. Cells were treated with 10-fold serially diluted bispecific antibody.

[3] = target: T1, BCMA (Homo sapiens, UniProt Q02223); details: background; read-out: affinity for BCMA; cited from earlier work
T1 sequence (Q02223 1-184): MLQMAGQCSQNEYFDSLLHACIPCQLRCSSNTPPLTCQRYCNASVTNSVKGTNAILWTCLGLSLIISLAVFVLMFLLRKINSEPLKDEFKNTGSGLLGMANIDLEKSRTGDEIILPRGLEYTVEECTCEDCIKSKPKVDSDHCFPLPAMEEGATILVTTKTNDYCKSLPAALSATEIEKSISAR

[4] = system: cynomolgus PBMC; assay: PBMC T cell proliferation by 3H-thymidine incorporation; assay type: cell-based; details: FIG. 10A/10B, 2 day cultures
Procedure: (§1) Human anti-CD3 antibodies were cloned from immunized mouse, expressed as mouse IgG1, and purified by Protein A affinity beads. Human/Cynomolgus peripheral blood mononuclear cells (hu/cyPBMC) were prepared by Ficoll (Density: 1.083 g/mL, GE) density gradient centrifugation from blood filters obtained from local blood banks. Erythrocytes were removed by incubating in LCK buffer (155 mM NH4Cl, 10 mM KHCO3, […]; Gibco) for 3 minutes at room temperature. Cells were centrifuged for 5 min at 600 g. The supernatant containing the lysed erythrocytes was discarded, and the PBMC were washed twice in 50 ml 1×PBS/1% BSA/1 mM EDTA. The pelleted cells were adjusted to 10^7 cells per ml in culture media, X-VIVO-15, serum free media (Lonza,), and the PBMC were seeded as 10^6 (100 ul) per-well to round bottom 96 well tissue culture plates. Selected Abs are 10× serial diluted from 1000 ng to 1 ng per mL for mixing with human PBMC and 5× serial diluted from 5000 ng to 200 ng per mL for mixing with cynomolgus PBMC. For analysis of PBMC T cell proliferation by ^3H-thymidine incorporation, 2 day cultures were performed in triplicate. During the final 16 h of culture ^3H-thymidine ([…]) was added, and incorporation was measured. Cells are harvested and lysed, DNA is captured onto glass-fiber filter. Radioactivity (cpm) as measure for proliferation by counting on a scintillation beta-counter.

[5] = system: human PBMC; assay: as above; assay type: cell-based; details: FIG. 10A/10B, 2 day cultures
Procedure: as §1

[6] = target: bsc_hCD3ed (Homo sapiens, UniProt P07766); assay: Biacore kinetics anti-xCD3e ab/bsc_hCD3ed; assay type: binding; details: data fitted from 80 nM-0.64 nM
[7] = target: hCD3 (human CD3) (Homo sapiens, UniProt P07766); assay: Kinetics and affinity of hCD3/human IgG interactions by SPR (Bio-Rad Proteon XPR36); assay type: binding
Procedure: All experiments were performed on a Bio-Rad Proteon XPR36 surface Plasmon resonance biosensor (Bio-Rad, Hercules, Calif.). An array of anti-CD3 antibodies was prepared using an amine-coupling method on a Bio-Rad GLC Sensor Chip similar to that described in Abdiche, et al., Anal. Biochem. 411, 139-151 (2011). The analysis temperature for the immobilization was 25° C. and the running buffer was HBS-T+(10 mM HEPES, 150 mM NaCl, 0.05% Tween-20, pH 7.4). Channels were activated in the analyte (horizontal) direction by injecting a mixture of 1 mM ECD and 0.25 mM NHS for 3 minutes at a flow rate of 30 μL/min. IgGs were immobilized on the activated spots by injecting them in the ligand (vertical) direction at 20 μg/mL in 10 mM Acetate pH 4.5 buffer for 1.5 minutes at […]. The activated surfaces were blocked by injecting 1M ethanolamine, pH 8.5 in the analyte direction for 3 minutes at 30 μL/min.
The analysis temperature for the hCD3 binding analysis was 37° C. or 25° C. in a running buffer of HBS-T+, supplemented with 1 mg/mL BSA. A kinetic titration method was employed for the interaction analysis as described in Abdiche, et al. The hCD3 (human CD3) analyte was injected in the analyte direction using a series of injections from low to high concentration. The concentrations used were 0.08 nM, 0.4 nM, 2 nM, 10 nM and 50 nM (a 5-membered series, with a 5-fold dilution factor and top concentration of 50 nM). The association time for a given analyte dilution was two minutes. Immediately after the 50 nM hCD3 injection, dissociation was monitored for 2 hours. Prior to the hCD3 analyte injections, buffer was injected 5 times using the same association and dissociation times at the hCD3 analyte cycles to prepare a buffer blank sensorgram for double-referencing purposes (double referencing as described in Myszka, J. Mol. Recognit. 12, 279-284 (1999).
The sensorgrams were double-referenced and fit to a 1:1 Langmuir with mass transport kinetic titration model in BIAevaluation Software version 4.1.1 (GE Lifesciences, Piscataway, N.J.).

[8] = target: cyCD3ed (Macaca fascicularis, UniProt Q95LI5); assay: Kinetics and affinity of cyCD3ed/human IgG interactions by SPR (Bio-Rad Proteon XPR36); assay type: binding, cynomolgus
Chain of cyCD3ed (Q95LI5 22-117 limits assumed): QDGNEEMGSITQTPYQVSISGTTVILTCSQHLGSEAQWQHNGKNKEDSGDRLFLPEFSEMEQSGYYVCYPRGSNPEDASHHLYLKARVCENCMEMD
Chain of cyCD3ed (Q95LI8 22-105 partner limits assumed): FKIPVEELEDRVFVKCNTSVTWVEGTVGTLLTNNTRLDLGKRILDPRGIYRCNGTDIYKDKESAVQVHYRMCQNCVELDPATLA

Chain of bsc_hCD3ed (P07766 23-126 limits assumed): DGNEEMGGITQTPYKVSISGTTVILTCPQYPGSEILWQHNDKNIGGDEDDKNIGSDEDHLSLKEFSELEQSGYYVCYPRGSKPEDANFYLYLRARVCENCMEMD
Chain of bsc_hCD3ed (P04234 22-105 partner limits assumed): as the sequence (Q95LI8 22-105 partner limits assumed) above, with V5I, K15N, V20I, T32S, N33D, N34I, A64T, N74S, L83V counted along it
Chain of hCD3 (human CD3) (P07766 23-126 limits assumed): as the sequence (P07766 23-126 limits assumed) above
Chain of hCD3 (human CD3) (P04234 22-105 partner limits assumed): as the sequence (Q95LI8 22-105 partner limits assumed) above, with V5I, K15N, V20I, T32S, N33D, N34I, A64T, N74S, L83V counted along it

Molecule: Nc1cccc2c1CN(C1CCC(=O)NC1=O)C2=O (stereo not drawn) [lenalidomide]
effect of combining on the efficacy of the anti-BCMA/CD3 bispecific antibody [1]: did not have a negative effect
effect on the function of Combo_Rd4_0.6 nM_C29-CD3 bispecific antibody on OPM2 cells [2]: do not have a negative effect

Molecule: CC(C)C[C@H](NC(=O)[C@H](CCc1ccccc1)NC(=O)CN1CCOCC1)C(=O)N[C@@H](Cc1ccccc1)C(=O)N[C@@H](CC(C)C)C(=O)[C@@]1(C)CO1 [carfilzomib]
effect on the function of Combo_Rd4_0.6 nM_C29-CD3 bispecific antibody on OPM2 cells [2]: do not have a negative effect

Molecule: BAFF: B-cell activation factor, ligand of BCMA
Kd [3]: 1000 nM

Molecule: COc1cccc2c1C(=O)c1c(O)c3c(c(O)c1C2=O)C[C@@](O)(C(=O)CO)C[C@@H]3O[C@H]1C[C@H](N)[C@H](O)[C@H](C)O1 [doxorubicin]
effect on the function of Combo_Rd4_0.6 nM_C29-CD3 bispecific antibody on OPM2 cells [2]: do not have a negative effect

Molecule: APRIL: a proliferation-inducing ligand, ligand of BCMA
Kd [3]: 16 nM

Molecule: CC(C)C[C@H](NC(=O)[C@H](Cc1ccccc1)NC(=O)c1cnccn1)B(O)O [bortezomib, [(1R)-3-methyl-1-[[(2S)-1-oxo-3-phenyl-2-[(pyrazinylcarbonyl)amino]propy-l]amino]butyl]boronic acid]
effect of combining on the efficacy of the anti-BCMA/CD3 bispecific antibody [1]: did not have a negative effect

ka [6]: 3.74E+05
kd [6]: 2.74E−03
B1: 2B4: anti-CD3 antibody cloned from mouse hybridoma, expressed as mouse IgG1 (antibody, V domains shown)
VH: EVKLVESGGGLVQPGGSLRLSCATFGFTFTDYYMTWVRQPPGKALEWVAFIRNRARGYTSDHNASVKGRFTISRDNSQNILYLQMNTLRAEDSATYYCARDRPSYYVLDYWGQGTTVTVSS
VL: DIVMSQSPPSLAVSVGDKVTMSCTSSQSLFNSRSRKNYLAWYQQKSGQSPKLLISWASTRESGVPDRFTGSGSGTDFTLTISSVQAEDLAVYYCKQSYDLFTFGSGTKLEIK
modifications: mouse IgG1 constant regions
Thymidine incorporation [4]: had Thymidine incorporation reading
Thymidine incorporation [5]: had Thymidine incorporation reading

B2: 1A4: anti-CD3 antibody cloned from mouse hybridoma, expressed as mouse IgG1 (antibody, V domains shown)
VH: QVQLQQSGPDLVKPGASVEISCKASGYSFTTYYLHWVRQRPGQGLEWIGWIFPGSDNTKYNEKFKGKATLTADTSSSTAYMQLSSLTSEDSAVYFCARNRDYYFDYWGQGTTVTVSS
VL: DIVMSQSPSSLAVSAGEKVTMSCKSSQSLLNSRTRKNYLAWYQQKPGQSPKLLIYWASTRASGVPDRFTGSGSGTDFTLTISSVQAEDLAIYYCKQSFILRTFGGGTKLEIK
modifications: mouse IgG1 constant regions
Thymidine incorporation [4]: had Thymidine incorporation reading
Thymidine incorporation [5]: had Thymidine incorporation reading

B3: 7A3: anti-CD3 antibody cloned from mouse hybridoma, expressed as mouse IgG1 (antibody, V domains shown)
VH: EVQLQQSGAELVRPGALVKLSCKGSGFNIKDYYIHWVKQRPEQGLEWIGWIDPENGNNKYDPKFQGKASITADTSSNIAYLQLSSLTSEDTAVYYCARNDNYAFDYWGQGTTVTVSS
VL: B2 VL with M4V, T20I, Q44L, W56S, A61E, A86T, I91V, K95M, I99T
modifications: mouse IgG1 constant regions
Thymidine incorporation [4]: had Thymidine incorporation reading
Thymidine incorporation [5]: had Thymidine incorporation reading

ka [6]: 2.96E+05
kd [6]: 2.37E−03
B4: 1C10: anti-CD3 antibody cloned from mouse hybridoma, expressed as mouse IgG1 (antibody, V domains shown)
VH: QVQLQQPGSELVRPGASVILSCKASGYTFTSYWMHWVRQRPGQGLEWIGNIYSGGDTINYDEKFKNKAILTVDTSSSTAYMHLSSLTSEDSAVYYCTRDATSRYFFDYWGQGTTVTVSS
VL: B2 VL with A61E, S82D, A86P, I91V, K95T
modifications: mouse IgG1 constant regions
Thymidine incorporation [4]: had Thymidine incorporation reading
Thymidine incorporation [5]: had Thymidine incorporation reading

ka huCD3ed @25° C. ([7]; 25° C.): 370000 M⁻¹ s⁻¹
kd huCD3ed @25° C. ([7]; 25° C.): 0.002 s⁻¹
ka huCD3ed @37° C. [7]: 437000 M⁻¹ s⁻¹
kd huCD3ed @37° C. [7]: 0.01369 s⁻¹
ka cyCD3ed @25° C. [8]: 390000 M⁻¹ s⁻¹
kd cyCD3ed @25° C. [8]: 0.0015 s⁻¹
B5: h2B4: anti-CD3 antibody (antibody, V domains shown)
VH: EVQLVESGGGLVQPGGSLRLSCAASGFTFSDYYMTWVRQAPGKGLEWVAFIRNRARGYTSDHNASVKGRFTISRDNAKNSLYLQMNSLRAEDTAVYYCARDRPSYYVLDYWGQGTTVTVSS
VL: DIVMTQSPDSLAVSLGERATINCTSSQSLFNVRSRKNYLAWYQQKPGQPPKLLISWASTRESGVPDRFSGSGSGTDFTLTISSLQAEDVAVYYCKQSYDLFTFGSGTKLEIK

ka huCD3ed @37° C. [7]: 250000 M⁻¹ s⁻¹
kd huCD3ed @37° C. [7]: 0.023 s⁻¹
B6: h2B4-VH-yaps VL_TK: anti-CD3 antibody (antibody, V domains shown)
VH: B5 VH with H62Y, N63A, A64P
VL: B5 VL with T24K
